Measurements as given in patent US20150344540A1, “NOVEL GLP-1 RECEPTOR AGONISTS WITH CHOLESTEROL EFFLUX ACTIVITY” (NOVO NORDISK A/S, priority 2012, published 2015).
Where two headings read alike, the source gives them in different places. Where a SMILES comes first, the peptide text is derived from it. Where no end group is shown, it is not given here. [ ]: non-standard residue; d: D form. Aib = CC(C)(N)C(=O)O

Legend:
human GLP-1 receptor [1] = biological target: human GLP-1 receptor (Homo sapiens, UniProt P43220); assay: Functional GLP-1 receptor assay, in vitro potency (CRE luciferase; whole cells); format: cell-based; details: BHK cells expressing human GLP-1 receptor
human GLP-1 receptor [2] = biological target: human GLP-1 receptor (human, UniProt P43220); assay: cell-based or functional assay

human GLP-1 receptor (Homo sapiens, UniProt P43220), sequence (P43220 24-463): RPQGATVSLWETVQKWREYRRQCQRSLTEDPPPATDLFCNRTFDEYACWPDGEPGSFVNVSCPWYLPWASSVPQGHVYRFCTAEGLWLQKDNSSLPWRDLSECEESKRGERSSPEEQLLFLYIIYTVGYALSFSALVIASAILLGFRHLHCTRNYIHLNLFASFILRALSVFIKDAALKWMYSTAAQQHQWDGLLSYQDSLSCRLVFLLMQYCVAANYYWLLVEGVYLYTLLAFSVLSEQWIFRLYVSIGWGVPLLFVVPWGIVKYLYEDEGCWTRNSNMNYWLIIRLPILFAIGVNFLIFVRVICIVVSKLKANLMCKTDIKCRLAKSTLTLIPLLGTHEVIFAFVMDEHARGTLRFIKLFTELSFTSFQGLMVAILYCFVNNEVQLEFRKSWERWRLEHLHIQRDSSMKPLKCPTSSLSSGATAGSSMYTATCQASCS

CC(C)C[C@H](NC(=O)[C@H](Cc1ccccc1)NC(=O)[C@H](CCC(=O)O)NC(=O)[C@H](CCCCN)NC(=O)C(C)(C)NC(=O)[C@H](CCCCN)NC(=O)[C@H](CCC(=O)O)NC(=O)[C@H](CC(C)C)NC(=O)[C@H](CC(C)C)NC(=O)[C@H](Cc1c[nH]c2ccccc12)NC(=O)[C@H](CCC(N)=O)NC(=O)[C@@H](NC(=O)[C@H](Cc1ccccc1)NC(=O)[C@H](CCC(=O)O)NC(=O)[C@H](CCCNC(=N)N)NC(=O)[C@H](C)NC(=O)[C@H](C)NC(=O)[C@H](CCCCN)NC(=O)[C@H](CO)NC(=O)[C@H](CC(=O)O)NC(=O)[C@H](CC(C)C)NC(=O)[C@H](Cc1ccc(O)cc1)NC(=O)[C@H](CCCCN)NC(=O)[C@H](CO)NC(=O)[C@H](Cc1ccc(O)cc1)NC(=O)[C@H](CC(=O)O)NC(=O)[C@H](CO)NC(=O)[C@@H](NC(=O)[C@H](Cc1ccccc1)NC(=O)[C@@H](NC(=O)CNC(=O)[C@H](CCC(N)=O)NC(=O)[C@H](CO)NC(=O)[C@@H](N)Cc1c[nH]cn1)[C@@H](C)O)[C@@H](C)O)C(C)C)C(N)=O [Compound 59] (H-HSQGTFTSDYSKYLDSKAAREFVQWLLEK[Aib]KEFL-NH2)
EC50 (human GLP-1 receptor [1]; 0% HSA, read-out: GLP1R CRE luc 0% HSA EC50 Mean Value): 0.434 nM | EC50 (human GLP-1 receptor [1]; GLP1R CRE luc 1% HSA EC50 Mean Value, 1% HSA): 0.198 nM

B1: [Asn14,Met16,Thr17,Asn18,Glu23,Val25,Glu34,Lys35,Aib36,Lys37]-GLP-1-(7-37)-peptidyl-Glu-Phe-Leu amide (peptide)
peptide: HAEGTFTNDMTNYLEGEAVKEFIAWLVEK[Aib]KEFL-NH2
modifications: N-terminus assumed
SMILES: CC[C@H](C)[C@H](NC(=O)[C@H](Cc1ccccc1)NC(=O)[C@H](CCC(=O)O)NC(=O)[C@H](CCCCN)NC(=O)[C@@H](NC(=O)[C@H](C)NC(=O)[C@H](CCC(=O)O)NC(=O)CNC(=O)[C@H](CCC(=O)O)NC(=O)[C@H](CC(C)C)NC(=O)[C@H](Cc1ccc(O)cc1)NC(=O)[C@H](CC(N)=O)NC(=O)[C@@H](NC(=O)[C@H](CCSC)NC(=O)[C@H](CC(=O)O)NC(=O)[C@H](CC(N)=O)NC(=O)[C@@H](NC(=O)[C@H](Cc1ccccc1)NC(=O)[C@@H](NC(=O)CNC(=O)[C@H](CCC(=O)O)NC(=O)[C@H](C)NC(=O)[C@@H](N)Cc1c[nH]cn1)[C@@H](C)O)[C@@H](C)O)[C@@H](C)O)C(C)C)C(=O)N[C@@H](C)C(=O)N[C@@H](Cc1c[nH]c2ccccc12)C(=O)N[C@@H](CC(C)C)C(=O)N[C@H](C(=O)N[C@@H](CCC(=O)O)C(=O)N[C@@H](CCCCN)C(=O)NC(C)(C)C(=O)N[C@@H](CCCCN)C(=O)N[C@@H](CCC(=O)O)C(=O)N[C@@H](Cc1ccccc1)C(=O)N[C@@H](CC(C)C)C(N)=O)C(C)C
CRE luciferase EC50, 0% HSA (human GLP-1 receptor [2]): 0.186 nM | CRE luciferase EC50, 1% HSA (human GLP-1 receptor [2]): 0.077 nM

B2: [Aib2,Glu21,Lys29,Aib30,Leu31,Glu32,Phe33,Leu34,Glu35,Leu36]-Exendin-4-(1-37)-peptide amide (peptide)
peptide: H[Aib]EGTFTSDLSKQMEEEAVREFIEWLKNK[Aib]LEFLELP-NH2
modifications: N-terminus assumed
SMILES: CC[C@H](C)[C@H](NC(=O)[C@H](Cc1ccccc1)NC(=O)[C@H](CCC(=O)O)NC(=O)[C@H](CCCNC(=N)N)NC(=O)[C@@H](NC(=O)[C@H](C)NC(=O)[C@H](CCC(=O)O)NC(=O)[C@H](CCC(=O)O)NC(=O)[C@H](CCC(=O)O)NC(=O)[C@H](CCSC)NC(=O)[C@H](CCC(N)=O)NC(=O)[C@H](CCCCN)NC(=O)[C@H](CO)NC(=O)[C@H](CC(C)C)NC(=O)[C@H](CC(=O)O)NC(=O)[C@H](CO)NC(=O)[C@@H](NC(=O)[C@H](Cc1ccccc1)NC(=O)[C@@H](NC(=O)CNC(=O)[C@H](CCC(=O)O)NC(=O)C(C)(C)NC(=O)[C@@H](N)Cc1c[nH]cn1)[C@@H](C)O)[C@@H](C)O)C(C)C)C(=O)N[C@@H](CCC(=O)O)C(=O)N[C@@H](Cc1c[nH]c2ccccc12)C(=O)N[C@@H](CC(C)C)C(=O)N[C@@H](CCCCN)C(=O)N[C@@H](CC(N)=O)C(=O)N[C@@H](CCCCN)C(=O)NC(C)(C)C(=O)N[C@@H](CC(C)C)C(=O)N[C@@H](CCC(=O)O)C(=O)N[C@@H](Cc1ccccc1)C(=O)N[C@@H](CC(C)C)C(=O)N[C@@H](CCC(=O)O)C(=O)N[C@@H](CC(C)C)C(=O)N1CCC[C@H]1C(N)=O
CRE luciferase EC50, 0% HSA (human GLP-1 receptor [2]): 0.023 nM | CRE luciferase EC50, 1% HSA (human GLP-1 receptor [2]): 0.01 nM

B3: [Aib8,Glu23,Val25,Arg26,Glu34,Arg35,Aib36,Arg37]-GLP-1-(7-37)-peptidyl-Glu-Phe-Leu amide (peptide)
peptide: H[Aib]EGTFTSDVSSYLEGEAVREFIAWLVER[Aib]REFL-NH2
modifications: N-terminus assumed
SMILES: CC[C@H](C)[C@H](NC(=O)[C@H](Cc1ccccc1)NC(=O)[C@H](CCC(=O)O)NC(=O)[C@H](CCCNC(=N)N)NC(=O)[C@@H](NC(=O)[C@H](C)NC(=O)[C@H](CCC(=O)O)NC(=O)CNC(=O)[C@H](CCC(=O)O)NC(=O)[C@H](CC(C)C)NC(=O)[C@H](Cc1ccc(O)cc1)NC(=O)[C@H](CO)NC(=O)[C@H](CO)NC(=O)[C@@H](NC(=O)[C@H](CC(=O)O)NC(=O)[C@H](CO)NC(=O)[C@@H](NC(=O)[C@H](Cc1ccccc1)NC(=O)[C@@H](NC(=O)CNC(=O)[C@H](CCC(=O)O)NC(=O)C(C)(C)NC(=O)[C@@H](N)Cc1c[nH]cn1)[C@@H](C)O)[C@@H](C)O)C(C)C)C(C)C)C(=O)N[C@@H](C)C(=O)N[C@@H](Cc1c[nH]c2ccccc12)C(=O)N[C@@H](CC(C)C)C(=O)N[C@H](C(=O)N[C@@H](CCC(=O)O)C(=O)N[C@@H](CCCNC(=N)N)C(=O)NC(C)(C)C(=O)N[C@@H](CCCNC(=N)N)C(=O)N[C@@H](CCC(=O)O)C(=O)N[C@@H](Cc1ccccc1)C(=O)N[C@@H](CC(C)C)C(N)=O)C(C)C
CRE luciferase EC50, 0% HSA (human GLP-1 receptor [2]): 0.086 nM | CRE luciferase EC50, 1% HSA (human GLP-1 receptor [2]): 0.041 nM

B4: [Aib8,Glu23,Val25,Glu34,Lys35,Phe36,Lys37]-GLP-1-(7-37)-peptidyl-Glu-Ala-Phe amide (peptide)
peptide: H[Aib]EGTFTSDVSSYLEGEAVKEFIAWLVEKFKEAF-NH2
modifications: N-terminus assumed
SMILES: CC[C@H](C)[C@H](NC(=O)[C@H](Cc1ccccc1)NC(=O)[C@H](CCC(=O)O)NC(=O)[C@H](CCCCN)NC(=O)[C@@H](NC(=O)[C@H](C)NC(=O)[C@H](CCC(=O)O)NC(=O)CNC(=O)[C@H](CCC(=O)O)NC(=O)[C@H](CC(C)C)NC(=O)[C@H](Cc1ccc(O)cc1)NC(=O)[C@H](CO)NC(=O)[C@H](CO)NC(=O)[C@@H](NC(=O)[C@H](CC(=O)O)NC(=O)[C@H](CO)NC(=O)[C@@H](NC(=O)[C@H](Cc1ccccc1)NC(=O)[C@@H](NC(=O)CNC(=O)[C@H](CCC(=O)O)NC(=O)C(C)(C)NC(=O)[C@@H](N)Cc1c[nH]cn1)[C@@H](C)O)[C@@H](C)O)C(C)C)C(C)C)C(=O)N[C@@H](C)C(=O)N[C@@H](Cc1c[nH]c2ccccc12)C(=O)N[C@@H](CC(C)C)C(=O)N[C@H](C(=O)N[C@@H](CCC(=O)O)C(=O)N[C@@H](CCCCN)C(=O)N[C@@H](Cc1ccccc1)C(=O)N[C@@H](CCCCN)C(=O)N[C@@H](CCC(=O)O)C(=O)N[C@@H](C)C(=O)N[C@@H](Cc1ccccc1)C(N)=O)C(C)C
CRE luciferase EC50, 0% HSA (human GLP-1 receptor [2]): 0.372 nM | CRE luciferase EC50, 1% HSA (human GLP-1 receptor [2]): 0.115 nM

B5: [Aib2,Glu21,Lys29,Aib30,Leu31,Glu32,Phe33,Leu34,Leu36,Leu37]-Exendin-4-(1-37)-peptide amide (peptide)
peptide: H[Aib]EGTFTSDLSKQMEEEAVREFIEWLKNK[Aib]LEFLALL-NH2
modifications: N-terminus assumed
SMILES: CC[C@H](C)[C@H](NC(=O)[C@H](Cc1ccccc1)NC(=O)[C@H](CCC(=O)O)NC(=O)[C@H](CCCNC(=N)N)NC(=O)[C@@H](NC(=O)[C@H](C)NC(=O)[C@H](CCC(=O)O)NC(=O)[C@H](CCC(=O)O)NC(=O)[C@H](CCC(=O)O)NC(=O)[C@H](CCSC)NC(=O)[C@H](CCC(N)=O)NC(=O)[C@H](CCCCN)NC(=O)[C@H](CO)NC(=O)[C@H](CC(C)C)NC(=O)[C@H](CC(=O)O)NC(=O)[C@H](CO)NC(=O)[C@@H](NC(=O)[C@H](Cc1ccccc1)NC(=O)[C@@H](NC(=O)CNC(=O)[C@H](CCC(=O)O)NC(=O)C(C)(C)NC(=O)[C@@H](N)Cc1c[nH]cn1)[C@@H](C)O)[C@@H](C)O)C(C)C)C(=O)N[C@@H](CCC(=O)O)C(=O)N[C@@H](Cc1c[nH]c2ccccc12)C(=O)N[C@@H](CC(C)C)C(=O)N[C@@H](CCCCN)C(=O)N[C@@H](CC(N)=O)C(=O)N[C@@H](CCCCN)C(=O)NC(C)(C)C(=O)N[C@@H](CC(C)C)C(=O)N[C@@H](CCC(=O)O)C(=O)N[C@@H](Cc1ccccc1)C(=O)N[C@@H](CC(C)C)C(=O)N[C@@H](C)C(=O)N[C@@H](CC(C)C)C(=O)N[C@@H](CC(C)C)C(N)=O
CRE luciferase EC50, 0% HSA (human GLP-1 receptor [2]): 0.754 nM | CRE luciferase EC50, 1% HSA (human GLP-1 receptor [2]): 0.388 nM

B6: [Aib8,Glu34,Lys35,Aib36,Lys37]-GLP-1-(7-37)-peptidyl-Glu-Phe-Leu amide (peptide)
peptide: H[Aib]EGTFTSDVSSYLEGQAAKEFIAWLVEK[Aib]KEFL-NH2
modifications: N-terminus assumed
SMILES: CC[C@H](C)[C@H](NC(=O)[C@H](Cc1ccccc1)NC(=O)[C@H](CCC(=O)O)NC(=O)[C@H](CCCCN)NC(=O)[C@H](C)NC(=O)[C@H](C)NC(=O)[C@H](CCC(N)=O)NC(=O)CNC(=O)[C@H](CCC(=O)O)NC(=O)[C@H](CC(C)C)NC(=O)[C@H](Cc1ccc(O)cc1)NC(=O)[C@H](CO)NC(=O)[C@H](CO)NC(=O)[C@@H](NC(=O)[C@H](CC(=O)O)NC(=O)[C@H](CO)NC(=O)[C@@H](NC(=O)[C@H](Cc1ccccc1)NC(=O)[C@@H](NC(=O)CNC(=O)[C@H](CCC(=O)O)NC(=O)C(C)(C)NC(=O)[C@@H](N)Cc1c[nH]cn1)[C@@H](C)O)[C@@H](C)O)C(C)C)C(=O)N[C@@H](C)C(=O)N[C@@H](Cc1c[nH]c2ccccc12)C(=O)N[C@@H](CC(C)C)C(=O)N[C@H](C(=O)N[C@@H](CCC(=O)O)C(=O)N[C@@H](CCCCN)C(=O)NC(C)(C)C(=O)N[C@@H](CCCCN)C(=O)N[C@@H](CCC(=O)O)C(=O)N[C@@H](Cc1ccccc1)C(=O)N[C@@H](CC(C)C)C(N)=O)C(C)C
CRE luciferase EC50, 0% HSA (human GLP-1 receptor [2]): 0.108 nM | CRE luciferase EC50, 1% HSA (human GLP-1 receptor [2]): 0.042 nM
